Tested on: Escherichia coli TOP10
Experiment: shrunken log2 fold change of peptide-encoding DNA abundance (4.5 h post-induction vs induction); higher = less antimicrobial activity (less host growth inhibition)
Settings: time post-induction: 4.5 h; library: site-saturation at positions 5, 18, 19, 20
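Note: peptides expressed intracellularly from a pBAD plasmid library in pooled LB shake-flask culture, induced with 0.3% L-arabinose, DNA abundance read by NGS, three biological replicates, DESeq2 with apeglm shrinkage.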

For RRIRWRPPRLPRPRPRPCPCPRP, the “shrunken log2 fold change” value was -0.273.
RRIRIRPPRLPRPRPRPDMCPRP was tested, and the “shrunken log2 fold change” value was 0.00741.
RRIRMRPPRLPRPRPRPSFYPRP was tested, and the “shrunken log2 fold change” value was -0.29.
RRIRGRPPRLPRPRPRPLRQPRP was tested, and the “shrunken log2 fold change” value was 0.62.
RRIRYRPPRLPRPRPRPNIAPRP was tested, and the “shrunken log2 fold change” value was -0.64.
RRIRLRPPRLPRPRPRPVTDPRP was tested, and the “shrunken log2 fold change” value was -0.325.
With RRIRDRPPRLPRPRPRPYEAPRP the “shrunken log2 fold change” value was -0.108.
With RRIRVRPPRLPRPRPRPHHIPRP the “shrunken log2 fold change” value was -0.386.
With RRIRKRPPRLPRPRPRPWTYPRP the “shrunken log2 fold change” value was 0.0938.
With RRIRCRPPRLPRPRPRPSCHPRP the “shrunken log2 fold change” value was -0.301.
For RRIRLRPPRLPRPRPRPHTSPRP, the “shrunken log2 fold change” value was -0.112.
For RRIRIRPPRLPRPRPRPYPFPRP, the “shrunken log2 fold change” value was -0.38.
With RRIRMRPPRLPRPRPRPLIEPRP the “shrunken log2 fold change” value was 1.14.
In the case of RRIRQRPPRLPRPRPRPSVDPRP, the “shrunken log2 fold change” value is reported as -0.00902.
With RRIRVRPPRLPRPRPRPEVHPRP the “shrunken log2 fold change” value was -0.0892.
For RRIRLRPPRLPRPRPRPKFGPRP, the “shrunken log2 fold change” value was 0.146.
For RRIRNRPPRLPRPRPRPECWPRP, the “shrunken log2 fold change” value was 0.616.
RRIRARPPRLPRPRPRPMQQPRP was tested, and the “shrunken log2 fold change” value was 0.281.
RRIRHRPPRLPRPRPRPMFNPRP was tested, and the “shrunken log2 fold change” value was -0.608.
For RRIRSRPPRLPRPRPRPSCWPRP, the “shrunken log2 fold change” value was 0.306.
With RRIRVRPPRLPRPRPRPQNPPRP the “shrunken log2 fold change” value was -0.396.
RRIRIRPPRLPRPRPRPPWTPRP was tested, and the “shrunken log2 fold change” value was 0.0205.
With RRIRDRPPRLPRPRPRPLTWPRP the “shrunken log2 fold change” value was 0.24.
RRIRHRPPRLPRPRPRPFHGPRP was tested, and the “shrunken log2 fold change” value was -0.121.
In the case of RRIRWRPPRLPRPRPRPLNNPRP, the “shrunken log2 fold change” value is reported as -0.323.
For RRIRKRPPRLPRPRPRPPQGPRP, the “shrunken log2 fold change” value was 0.469.
For RRIRPRPPRLPRPRPRPSKCPRP, the “shrunken log2 fold change” value was -0.0749.
In the case of RRIRYRPPRLPRPRPRPQDQPRP, the “shrunken log2 fold change” value is reported as -0.21.
For RRIRNRPPRLPRPRPRPMGSPRP, the “shrunken log2 fold change” value was -0.01.
RRIRYRPPRLPRPRPRPNFNPRP was tested, and the “shrunken log2 fold change” value was -0.818.
With RRIRKRPPRLPRPRPRPYKCPRP the “shrunken log2 fold change” value was -0.168.
In the case of RRIRPRPPRLPRPRPRPDPKPRP, the “shrunken log2 fold change” value is reported as 0.367.
In the case of RRIRYRPPRLPRPRPRPGRQPRP, the “shrunken log2 fold change” value is reported as -0.031.
With RRIRIRPPRLPRPRPRPIAHPRP the “shrunken log2 fold change” value was -0.358.
With RRIRSRPPRLPRPRPRPCQWPRP the “shrunken log2 fold change” value was -0.134.
For RRIRFRPPRLPRPRPRPYWHPRP, the “shrunken log2 fold change” value was -0.754.
For RRIRFRPPRLPRPRPRPFFDPRP, the “shrunken log2 fold change” value was -0.065.
With RRIRFRPPRLPRPRPRPVTCPRP the “shrunken log2 fold change” value was -0.491.
RRIRWRPPRLPRPRPRPCNNPRP was tested, and the “shrunken log2 fold change” value was 0.00194.
With RRIRYRPPRLPRPRPRPFMFPRP the “shrunken log2 fold change” value was -0.861.
RRIRERPPRLPRPRPRPMMIPRP was tested, and the “shrunken log2 fold change” value was -0.251.
RRIRSRPPRLPRPRPRPEVIPRP was tested, and the “shrunken log2 fold change” value was 0.18.
With RRIRRRPPRLPRPRPRPVKYPRP the “shrunken log2 fold change” value was -0.167.
With RRIRTRPPRLPRPRPRPSLWPRP the “shrunken log2 fold change” value was 0.277.
With RRIRCRPPRLPRPRPRPGEHPRP the “shrunken log2 fold change” value was -0.0986.
For RRIRNRPPRLPRPRPRPQRKPRP, the “shrunken log2 fold change” value was 0.103.
With RRIRHRPPRLPRPRPRPHVEPRP the “shrunken log2 fold change” value was -0.0794.
In the case of RRIRLRPPRLPRPRPRPMDRPRP, the “shrunken log2 fold change” value is reported as -0.0152.
RRIRLRPPRLPRPRPRPSGRPRP was tested, and the “shrunken log2 fold change” value was 0.448.
In the case of RRIRRRPPRLPRPRPRPAEWPRP, the “shrunken log2 fold change” value is reported as 0.136.
With RRIRIRPPRLPRPRPRPIQSPRP the “shrunken log2 fold change” value was -0.0915.
With RRIRKRPPRLPRPRPRPSRGPRP the “shrunken log2 fold change” value was 0.741.
With RRIRRRPPRLPRPRPRPWREPRP the “shrunken log2 fold change” value was -0.0799.
RRIRYRPPRLPRPRPRPCVPPRP was tested, and the “shrunken log2 fold change” value was -0.0398.
With RRIRNRPPRLPRPRPRPMTYPRP the “shrunken log2 fold change” value was -0.0655.
In the case of RRIRNRPPRLPRPRPRPHLAPRP, the “shrunken log2 fold change” value is reported as 0.131.
RRIRERPPRLPRPRPRPEYEPRP was tested, and the “shrunken log2 fold change” value was 0.0303.
With RRIRNRPPRLPRPRPRPNHMPRP the “shrunken log2 fold change” value was -0.16.
RRIRVRPPRLPRPRPRPRPRPRP was tested, and the “shrunken log2 fold change” value was 0.62.
In the case of RRIRYRPPRLPRPRPRPCELPRP, the “shrunken log2 fold change” value is reported as -0.0555.
With RRIRGRPPRLPRPRPRPNFEPRP the “shrunken log2 fold change” value was 1.87.
For RRIRNRPPRLPRPRPRPSFLPRP, the “shrunken log2 fold change” value was -0.473.
With RRIRMRPPRLPRPRPRPTVYPRP the “shrunken log2 fold change” value was -0.0666.
In the case of RRIRVRPPRLPRPRPRPVMRPRP, the “shrunken log2 fold change” value is reported as 0.269.
RRIRLRPPRLPRPRPRPEELPRP was tested, and the “shrunken log2 fold change” value was 0.068.
RRIRDRPPRLPRPRPRPMKCPRP was tested, and the “shrunken log2 fold change” value was -0.00962.
RRIRHRPPRLPRPRPRPHAKPRP was tested, and the “shrunken log2 fold change” value was -0.00884.
RRIRYRPPRLPRPRPRPQIGPRP was tested, and the “shrunken log2 fold change” value was 0.00262.
With RRIRIRPPRLPRPRPRPDSQPRP the “shrunken log2 fold change” value was -0.0342.
With RRIRARPPRLPRPRPRPCITPRP the “shrunken log2 fold change” value was 0.178.
With RRIRYRPPRLPRPRPRPSIDPRP the “shrunken log2 fold change” value was -0.519.
With RRIRQRPPRLPRPRPRPFACPRP the “shrunken log2 fold change” value was -0.111.
For RRIRQRPPRLPRPRPRPPDTPRP, the “shrunken log2 fold change” value was 0.103.
For RRIRTRPPRLPRPRPRPGGHPRP, the “shrunken log2 fold change” value was 0.0329.
RRIRGRPPRLPRPRPRPAKTPRP was tested, and the “shrunken log2 fold change” value was 0.121.
RRIRDRPPRLPRPRPRPCPDPRP was tested, and the “shrunken log2 fold change” value was -0.312.
RRIRCRPPRLPRPRPRPYCQPRP was tested, and the “shrunken log2 fold change” value was -0.219.
In the case of RRIRIRPPRLPRPRPRPHGNPRP, the “shrunken log2 fold change” value is reported as 0.142.
In the case of RRIRQRPPRLPRPRPRPGFVPRP, the “shrunken log2 fold change” value is reported as 0.217.
For RRIRDRPPRLPRPRPRPGVDPRP, the “shrunken log2 fold change” value was 1.36.
For RRIRGRPPRLPRPRPRPYADPRP, the “shrunken log2 fold change” value was 0.0582.
With RRIRRRPPRLPRPRPRPLMAPRP the “shrunken log2 fold change” value was 0.312.
For RRIRARPPRLPRPRPRPPCRPRP, the “shrunken log2 fold change” value was 0.517.
RRIRWRPPRLPRPRPRPRPKPRP was tested, and the “shrunken log2 fold change” value was 0.697.
For RRIRMRPPRLPRPRPRPDNVPRP, the “shrunken log2 fold change” value was -0.0207.
With RRIRQRPPRLPRPRPRPHYCPRP the “shrunken log2 fold change” value was -0.0397.
For RRIRWRPPRLPRPRPRPHYFPRP, the “shrunken log2 fold change” value was -0.087.
RRIRVRPPRLPRPRPRPVEQPRP was tested, and the “shrunken log2 fold change” value was -0.0734.
With RRIRIRPPRLPRPRPRPAVAPRP the “shrunken log2 fold change” value was 0.0259.
In the case of RRIRKRPPRLPRPRPRPMPYPRP, the “shrunken log2 fold change” value is reported as -0.0398.
In the case of RRIRPRPPRLPRPRPRPAMCPRP, the “shrunken log2 fold change” value is reported as -0.0389.
